From publication PMC7847308, “Nanoscopic anatomy of dynamic multi-protein complexes at membranes resolved by graphene-induced energy transfer” (eLife, 2021)
Each block holds one binder with its values, some of them ahead of it.

Legend:
Details in all cases: both partners purified
[1] = target: T1, HOPS complex with Vps11 C-terminally fused to yEGFP (S. cerevisiae, UniProt P38959 1-992; Q07468 1-1049; P12868 1-1029; P27801 1-918; Q03308 1-798; P20795 …); assay: confocal fluorescence imaging and FLIM of recruitment to supported lipid layers; 50 nM yEGFP-fused HOPS added for 5 min at room temperature to DOPC bilayers on glass or monolayers on graphene loaded with 150 nM pYpt7-GTP; washed 5 times with HBS
T1 construct: Vps41, HOPS subunit, S. cerevisiae; Vps39, HOPS subunit, S. cerevisiae; Vps11, HOPS subunit, S. cerevisiae; Vps18, HOPS subunit, S. cerevisiae; Vps16, HOPS subunit, S. cerevisiae; Vps33, HOPS subunit, S. cerevisiae; In the single-molecule experiment labelled with 50 pM Dy647-coupled anti-GFP nanobody; also called HOPS Vps11-yEGFP; HOPS Vps11; source: S. cerevisiae, overexpressed, purified (IgG …)

[2] = target: T2, HOPS complex with Vps33 C-terminally fused to yEGFP (S. cerevisiae, UniProt P38959 1-992; Q07468 1-1049; P12868 1-1029; P27801 1-918; Q03308 1-798; P20795 …); assay: as above
T2 construct: Vps41, HOPS subunit, S. cerevisiae; Vps39, HOPS subunit, S. cerevisiae; Vps11, HOPS subunit, S. cerevisiae; Vps18, HOPS subunit, S. cerevisiae; Vps16, HOPS subunit, S. cerevisiae; Vps33, HOPS subunit, S. cerevisiae; In the single-molecule experiment labelled with 50 pM Dy647-coupled anti-GFP nanobody; also called HOPS Vps33-yEGFP; HOPS Vps33; source: S. cerevisiae, overexpressed, purified (IgG …)

[3] = target: T3, HOPS complex with Vps16 C-terminally fused to yEGFP (S. cerevisiae, UniProt P38959 1-992; Q07468 1-1049; P12868 1-1029; P27801 1-918; Q03308 1-798; P20795 …); assay: as above
T3 construct: Vps41, HOPS subunit, S. cerevisiae; Vps39, HOPS subunit, S. cerevisiae; Vps11, HOPS subunit, S. cerevisiae; Vps18, HOPS subunit, S. cerevisiae; Vps16, HOPS subunit, S. cerevisiae; Vps33, HOPS subunit, S. cerevisiae; also called HOPS Vps16-yEGFP; HOPS (Vps16-yEGFP); source: S. cerevisiae, overexpressed, purified (IgG Sepharose, TEV elution); copies: + + + + +

[4] = target: T4, HOPS complex with Vps39 C-terminally fused to yEGFP (S. cerevisiae, UniProt P38959 1-992; Q07468 1-1049; P12868 1-1029; P27801 1-918; Q03308 1-798; P20795 …); assay: as above
T4 construct: Vps41, HOPS subunit, S. cerevisiae; Vps39, HOPS subunit, S. cerevisiae; Vps11, HOPS subunit, S. cerevisiae; Vps18, HOPS subunit, S. cerevisiae; Vps16, HOPS subunit, S. cerevisiae; Vps33, HOPS subunit, S. cerevisiae; also called HOPS Vps39-yEGFP; yEGFP-tagged HOPS; source: S. cerevisiae, overexpressed, purified (IgG Sepharose, TEV elution); copies: + + + + +

[5] = target: T5, HOPS complex with Vps18 C-terminally fused to yEGFP (S. cerevisiae, UniProt P38959 1-992; Q07468 1-1049; P12868 1-1029; P27801 1-918; Q03308 1-798; P20795 …); assay: as above
T5 construct: Vps41, HOPS subunit, S. cerevisiae; Vps39, HOPS subunit, S. cerevisiae; Vps11, HOPS subunit, S. cerevisiae; Vps18, HOPS subunit, S. cerevisiae; Vps16, HOPS subunit, S. cerevisiae; Vps33, HOPS subunit, S. cerevisiae; also called HOPS Vps18-yEGFP; yEGFP-tagged HOPS; source: S. cerevisiae, overexpressed, purified (IgG Sepharose, TEV elution); copies: + + + + +

[6] = target: T6, HOPS complex (S. cerevisiae, UniProt P38959 1-992; Q07468 1-1049; P12868 1-1029; P27801 1-918; Q03308 1-798; P20795 …); assay: FRAP and confocal imaging on supported lipid bilayers; 200 nM mNeon-pYpt7-GTP anchored in glass-supported lipid bilayers, 100 nM HOPS added; room temperature
T6 construct: Vps41, HOPS subunit, S. cerevisiae; Vps39, HOPS subunit, S. cerevisiae; Vps11, HOPS subunit, S. cerevisiae; Vps18, HOPS subunit, S. cerevisiae; Vps16, HOPS subunit, S. cerevisiae; Vps33, HOPS subunit, S. cerevisiae; 650 kDa heterohexamer; the 3HA follows the GAL1 promoter in the genotype; also called homotypic fusion and vacuole protein sorting complex; untagged HOPS; source: S. cerevisiae, …

[7] = target: T7, Mon1-Ccz1 complex (S. cerevisiae, UniProt P53129 1-644; P38273 1-704); assay: GIET fluorescence lifetime (FLIM) on graphene-supported lipid monolayers; 200 nM mNeon-pYpt7-GTP anchored in lipid layers on graphene and glass; 100 nM Mon1-Ccz1 or HOPS added for 5 min at room temperature, washed 8 times with HBS; lifetime ratio of mNeon
T7 construct: Mon1, S. cerevisiae; chromosomal locus under the GAL1 promoter; Ccz1, S. cerevisiae; chromosomal locus under the GAL1 promoter, TAP-tagged; Eluted from IgG beads by TEV cleavage; also called GEF; source: S. cerevisiae, overexpressed, purified (IgG Sepharose, TEV elution)
T7 sequence (looked up) 1: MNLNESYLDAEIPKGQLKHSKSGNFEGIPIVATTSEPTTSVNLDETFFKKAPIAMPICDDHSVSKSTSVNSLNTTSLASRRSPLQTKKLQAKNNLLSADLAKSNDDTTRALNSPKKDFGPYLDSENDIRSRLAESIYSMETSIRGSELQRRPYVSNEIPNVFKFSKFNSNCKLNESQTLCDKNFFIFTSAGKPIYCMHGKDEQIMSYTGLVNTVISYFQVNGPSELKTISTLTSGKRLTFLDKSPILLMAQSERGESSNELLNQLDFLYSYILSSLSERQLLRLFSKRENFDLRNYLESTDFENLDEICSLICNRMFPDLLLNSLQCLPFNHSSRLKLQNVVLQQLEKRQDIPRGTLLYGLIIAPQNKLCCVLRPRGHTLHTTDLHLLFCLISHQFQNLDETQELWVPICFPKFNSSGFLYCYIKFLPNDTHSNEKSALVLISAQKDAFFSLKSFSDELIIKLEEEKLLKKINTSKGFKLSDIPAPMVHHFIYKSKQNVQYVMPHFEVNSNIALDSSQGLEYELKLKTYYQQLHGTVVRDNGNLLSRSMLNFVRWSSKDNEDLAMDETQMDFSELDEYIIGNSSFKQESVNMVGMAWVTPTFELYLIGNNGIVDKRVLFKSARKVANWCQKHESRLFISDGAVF
T7 sequence (looked up) 2: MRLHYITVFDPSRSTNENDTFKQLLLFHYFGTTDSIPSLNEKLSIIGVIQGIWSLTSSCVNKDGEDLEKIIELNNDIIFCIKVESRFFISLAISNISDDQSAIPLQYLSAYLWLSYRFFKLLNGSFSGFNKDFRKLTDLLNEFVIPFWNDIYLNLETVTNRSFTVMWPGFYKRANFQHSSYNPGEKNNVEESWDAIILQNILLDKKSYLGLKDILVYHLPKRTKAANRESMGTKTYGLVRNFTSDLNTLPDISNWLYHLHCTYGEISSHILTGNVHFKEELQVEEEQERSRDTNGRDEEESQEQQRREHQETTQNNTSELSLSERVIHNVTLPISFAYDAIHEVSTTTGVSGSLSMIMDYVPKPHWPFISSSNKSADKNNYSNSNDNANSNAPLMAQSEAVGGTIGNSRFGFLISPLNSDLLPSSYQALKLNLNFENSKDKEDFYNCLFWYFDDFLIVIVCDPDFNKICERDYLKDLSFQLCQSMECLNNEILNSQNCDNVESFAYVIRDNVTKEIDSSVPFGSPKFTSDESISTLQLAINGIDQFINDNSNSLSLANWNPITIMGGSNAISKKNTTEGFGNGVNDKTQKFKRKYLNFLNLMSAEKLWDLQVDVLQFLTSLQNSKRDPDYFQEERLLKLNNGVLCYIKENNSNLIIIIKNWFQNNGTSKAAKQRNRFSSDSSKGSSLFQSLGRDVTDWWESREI

binding result [1]: binds
binding result [2]: binds
binding result [3]: binds
binding result [4]: binds
binding result [5]: binds
B1: prenylated Ypt7 (natural protein, S. cerevisiae, UniProt P32939 1-208, looked up)
chain: MSSRKKNILKVIILGDSGVGKTSLMHRYVNDKYSQQYKATIGADFLTKEVTVDGDKVATMQVWDTAGQERFQSLGVAFYRGADCCVLVYDVTNASSFENIKSWRDEFLVHANVNSPETFPFVILGNKIDAEESKKIVSEKSAQELAKSLGDIPLFLTSAKNAINVDTAFEEIARSALQQNQADTEAFEDDYNDAINIRLDGENNSCSC
modifications: C-terminal prenyl (geranylgeranyl) group, added by in vitro prenylation
notes: Ypt7, Rab7-like GTPase of S. cerevisiae; pET24d-GST-TEV-Ypt7 is surmised (the other construct carries a C-terminal His6 tag); GDP-loaded with GDI, GTP-loaded on membranes; also called pYpt7; pYpt7-GTP; source: E. coli BL21 (DE3) Rosetta, purified, prenylated in vitro

binding result [6]: binds
binding result [7]: binds
B2: prenylated mNeonGreen-Ypt7 (natural protein, S. cerevisiae, UniProt P32939 1-208, looked up)
chain: B1 chain
modifications: C-terminal prenyl (geranylgeranyl) group, added by in vitro prenylation
notes: Ypt7, Rab7-like GTPase of S. cerevisiae; GDP-loaded in the complex with GDI; GTP-loaded when anchored in the lipid layers; also called mNeon-pYpt7; mNeon-Ypt7; source: E. coli BL21 (DE3) Rosetta, purified (Glutathione Sepharose, TEV cleavage), prenylated in vitro; not shown: mNeonGreen (via a GGSGx3 linker), N-terminal, kept
